Results from patent WO2007059300A2 (dated 2007).
Each block holds one binder with its values, some of them ahead of it.

What was measured:
[1] = target: T1, ALK-ECD-myc/his tag protein (human, UniProt Q9UM73 19-1038); experiment: ELISA, ALK-ECD-myc/his coated at 10 μg/mL, anti-human IgG-HRP
T1 construct: Expressed in 293/293F cells and purified from conditioned medium; biotin labelled for the soluble panning; also called recombinant ALK-ECD-myc/his tag; ALK-ECD protein; not shown: Myc/His tag

[2] = target: T2, ALK expressed on the cell surface (human, UniProt Q9UM73 19-1620); experiment: FACS on ALK positive cells, 1 to 20 μg/mL IgG, FITC anti-human IgG
T2 construct: also called ALK protein expressed on the cell surface; ALK-expressing cells
T2 sequence (Q9UM73 other isoform, or with tags, fused parts or gaps limits assumed): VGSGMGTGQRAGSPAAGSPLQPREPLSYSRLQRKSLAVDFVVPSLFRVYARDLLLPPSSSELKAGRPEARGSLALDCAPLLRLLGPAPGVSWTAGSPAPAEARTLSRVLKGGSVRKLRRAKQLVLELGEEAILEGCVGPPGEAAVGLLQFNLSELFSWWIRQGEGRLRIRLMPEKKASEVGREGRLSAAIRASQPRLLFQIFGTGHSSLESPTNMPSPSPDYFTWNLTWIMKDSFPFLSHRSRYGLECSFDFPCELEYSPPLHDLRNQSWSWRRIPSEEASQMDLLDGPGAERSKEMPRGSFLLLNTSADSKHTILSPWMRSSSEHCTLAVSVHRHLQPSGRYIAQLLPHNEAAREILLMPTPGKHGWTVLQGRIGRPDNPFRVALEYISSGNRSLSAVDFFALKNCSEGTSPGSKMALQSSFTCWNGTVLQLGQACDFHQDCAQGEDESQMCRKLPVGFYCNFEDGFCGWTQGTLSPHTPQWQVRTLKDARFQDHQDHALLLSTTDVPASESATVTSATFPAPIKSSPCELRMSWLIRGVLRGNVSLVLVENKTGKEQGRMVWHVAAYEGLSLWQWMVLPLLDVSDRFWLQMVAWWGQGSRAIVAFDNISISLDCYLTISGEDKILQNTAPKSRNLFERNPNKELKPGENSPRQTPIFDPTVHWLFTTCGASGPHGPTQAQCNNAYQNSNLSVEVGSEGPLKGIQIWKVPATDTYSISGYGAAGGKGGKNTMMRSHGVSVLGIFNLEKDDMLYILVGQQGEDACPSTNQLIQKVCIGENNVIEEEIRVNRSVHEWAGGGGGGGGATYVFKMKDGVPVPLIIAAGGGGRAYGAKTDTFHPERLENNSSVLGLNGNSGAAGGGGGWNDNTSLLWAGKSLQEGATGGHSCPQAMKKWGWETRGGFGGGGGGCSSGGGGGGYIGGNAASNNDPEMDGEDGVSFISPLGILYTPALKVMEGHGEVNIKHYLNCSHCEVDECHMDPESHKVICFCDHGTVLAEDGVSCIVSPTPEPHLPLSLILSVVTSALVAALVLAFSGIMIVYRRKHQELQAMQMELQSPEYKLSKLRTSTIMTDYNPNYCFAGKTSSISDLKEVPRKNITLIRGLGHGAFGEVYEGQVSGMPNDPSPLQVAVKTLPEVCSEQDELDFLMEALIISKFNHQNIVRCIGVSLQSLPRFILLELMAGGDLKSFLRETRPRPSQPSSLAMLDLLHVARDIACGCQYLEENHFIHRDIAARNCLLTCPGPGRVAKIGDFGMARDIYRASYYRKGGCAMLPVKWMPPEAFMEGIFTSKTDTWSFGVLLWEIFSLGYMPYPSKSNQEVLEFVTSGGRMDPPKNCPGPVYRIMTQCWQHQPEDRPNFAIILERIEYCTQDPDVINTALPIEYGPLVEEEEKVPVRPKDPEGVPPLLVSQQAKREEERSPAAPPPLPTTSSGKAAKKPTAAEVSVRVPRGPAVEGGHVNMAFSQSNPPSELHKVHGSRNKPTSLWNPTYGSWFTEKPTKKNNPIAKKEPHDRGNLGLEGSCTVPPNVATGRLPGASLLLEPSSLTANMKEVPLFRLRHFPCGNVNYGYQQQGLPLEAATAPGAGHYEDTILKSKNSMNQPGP

T1 sequence (Q9UM73 other isoform, or with tags, fused parts or gaps): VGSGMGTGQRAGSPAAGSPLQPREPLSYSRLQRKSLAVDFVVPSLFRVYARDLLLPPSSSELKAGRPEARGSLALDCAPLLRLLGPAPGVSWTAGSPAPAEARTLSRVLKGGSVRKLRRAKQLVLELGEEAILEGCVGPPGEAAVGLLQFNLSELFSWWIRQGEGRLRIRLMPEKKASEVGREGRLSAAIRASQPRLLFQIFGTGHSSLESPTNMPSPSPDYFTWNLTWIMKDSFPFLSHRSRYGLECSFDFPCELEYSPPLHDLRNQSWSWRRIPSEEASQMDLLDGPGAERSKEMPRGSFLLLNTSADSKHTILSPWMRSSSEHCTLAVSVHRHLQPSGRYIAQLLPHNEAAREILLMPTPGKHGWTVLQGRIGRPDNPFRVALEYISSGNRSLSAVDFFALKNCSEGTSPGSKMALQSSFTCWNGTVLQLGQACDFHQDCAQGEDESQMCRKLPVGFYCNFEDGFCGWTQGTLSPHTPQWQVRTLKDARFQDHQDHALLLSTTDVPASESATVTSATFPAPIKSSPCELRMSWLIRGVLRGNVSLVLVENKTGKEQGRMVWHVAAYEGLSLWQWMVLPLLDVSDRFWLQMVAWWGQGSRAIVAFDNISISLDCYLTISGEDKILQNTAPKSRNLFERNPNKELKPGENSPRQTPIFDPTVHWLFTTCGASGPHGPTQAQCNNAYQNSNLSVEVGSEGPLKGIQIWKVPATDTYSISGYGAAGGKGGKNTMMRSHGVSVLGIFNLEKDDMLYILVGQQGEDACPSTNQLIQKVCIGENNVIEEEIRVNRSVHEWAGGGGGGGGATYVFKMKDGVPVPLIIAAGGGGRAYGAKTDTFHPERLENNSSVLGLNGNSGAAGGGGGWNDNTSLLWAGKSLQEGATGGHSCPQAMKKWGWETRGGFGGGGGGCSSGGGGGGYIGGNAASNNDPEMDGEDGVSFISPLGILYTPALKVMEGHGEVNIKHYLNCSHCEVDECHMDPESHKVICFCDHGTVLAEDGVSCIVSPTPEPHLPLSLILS

B1: fully human anti-ALK IgG B6 (antibody, V domains shown)
VH: EVQLLESGGGLVQPGGSLRLSCAASGFTFSFYTMFWVRQAPGKGLEWVSSIRPSGGLTGYADSVKGRFTISRDNSKNTLYLQMNSLRAEDTAVYYCARGMQRGLDYWGQGTLVTVSS
VL: QSALSQPPSASGTPGQRVSISCSGSSSNIGSYYVYWYQHLPGTAPKLLIYRNNQRPSGVPDRFSGSKSGTSASLAISGLRSEDESDYYCAAWDDRLSAWVFGGGTKLTVLG
notes: Full length fully human IgG
binding result [1]: binds

B2: fully human anti-ALK IgG E5 (antibody, V domains shown)
VH: EVQLLESGGGLVQPGGSLRLSCAASGFTFSLYPMMWVRQAPGKGLEWVSVISSSGGFTFYADSVKGRFTISRDNSKNTLYLQMNSLRAEDTAVYYCARSLAYIFDAFDIWGQGTMVTVSS
VL: DIQMTQSPGTLSLSPGERATLYCRASQSLYSSYLAWYQQRPGQAPRLLIYDTSSRATGIPDRFSGSGSGTDFTLTISRLEPEDFAVYYCQQYGTSLRTFGQGTKVEIK
notes: Full length fully human IgG
binding result [1]: binds

B5: fully human anti-ALK IgG B2 (antibody, V domains shown)
VH: EVQLLESGGGLVQPGGSLRLSCAASGFTFSHYMMEWVRQAPGKGLEWVSGIVPSGGLTTYADSVKGRFTISRDNSKNTLYLQMNSLRAEDTAVYYCATITMGAFDIWGQGTMVTVSS
VL: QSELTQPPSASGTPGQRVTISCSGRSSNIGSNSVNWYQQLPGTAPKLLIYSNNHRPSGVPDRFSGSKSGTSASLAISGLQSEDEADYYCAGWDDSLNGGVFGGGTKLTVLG
notes: Full length fully human IgG
binding result [1]: binds

B6: fully human anti-ALK IgG D5 (antibody, V domains shown)
VH: EVQLLESGGGLVQPGGSLRLSCAASGFTFSNYRMSWVRQAPGKGLEWVSWIYSSGGMTTYADSVKGRFTISRDNSKNTLYLQMNSLRAEDTAVYYCARERSKNYDTSVPVGFDIWGQGTMVTVSS
VL: DIQMTQSPATLSLSPGERATLSCRASQSISSFLAWYQHKPGQAPRLLIYDASNRATGIPARFSGSGSGTDFTLTISSLEPEDFAVYYCQQRTTWPPALTFGGGTKVEIK
notes: Full length fully human IgG
binding result [1]: binds

B8: fully human anti-ALK IgG A2 (antibody, V domains shown)
VH: EVQLLESGGGLVQPGGSLRLSCAASGFTFSGYTMYWVRQAPGKGLEWVSSISPSGGITFYADSVKGRFTISRDNSKNTLYLQMNSLRAEDTAVYYCARGRLFWSGYYTNRLGYAFDIWGQGTMVTVSS
VL: DIQMTQSPSSLSASVGDRVTITCRASQSIRSYLNWYQQKPGKAPKLLIYAASNLQSGVPSRFSGSGSGTDFTLSISSLQPEDFATYYCQQSYSTLWTFGQGTKVEIK
notes: Full length fully human IgG
binding result [1]: binds

B9: fully human anti-ALK IgG D10 (antibody, V domains shown)
VH: EVQLLESGGGLVQPGGSLRLSCAASGFTFSKYGMHWVRQAPGKGLEWVSYIVPSGGYTIYADSVKGRFTISRDNSKNTLYLQMNSLRAEDTAMYYCAKLAGDWFDPWGQGTLVTVSS
VL: DIQMTQSPLSLPVTLGQPASISCRSSQSLVHSNGNTYLSWFHQRPGQSPRRLIHKISDRVSGVPDRFSGSGSGTDFTLKISRLEAEDVGIYYCMQGTHWPPTFGQGTKVEIK
notes: Full length fully human IgG; also called DlO; DlO antibody
binding result [1]: binds
binding result [2]: binds

Now from value to binder:

binding result [1]: binds
B3: fully human anti-ALK IgG B8 (antibody, V domains shown)
VH: EVQLLESGGGLVQPGGSLRLSCAASGFTFSQYVMAWVRQAPGKGLEWVSSIWSSGGMTWYADSVKGRFTISRDNSKNTLYLQMNSLRAEDTAVYYCAKHGVLRYFDWSMPFDFWGQGTLVTVSS
VL: DIQMTQSPPSLSASVGDRVTITCRTSQNISSYLNWYQQKPGKAPKLLIYAASSLQSGVPSRFSGSGSGTDFTLTIRSLQPEDFAAYYCQQSYTSLTFGGGTKVEIK
notes: Full length fully human IgG

binding result [1]: binds
B4: fully human anti-ALK IgG E1 (antibody, V domains shown)
VH: EVQLLESGGGLVQPGGSLRLSCAASGFTFSWYSMWWVRQAPGKGLEWVSSIRPSGGKTTYADSVKGRFTISRDNSKNTLYLQMNSLRAEDTAVYYCAKGLDPNGIAAAGGEGYWGQGTLVTVSS
VL: QSALTQPASVSGSPGQSITITCSGDALPKQFGYWYQQKPGQAPILVIYKDTERPSGIPERFSGSSSGTIVTLTISGVRAEDEADYYCQSADSSGNSVVFGGGTKLTVLG
notes: Full length fully human IgG; also called El

binding result [1]: binds
B7: fully human anti-ALK IgG C1 (antibody, V domains shown)
VH: EVQLLESGGGLVQPGGSLRLSCAASGFTFSMYPMDWVRQAPGKGLEWVSRISSSGGTTEYADSVKGRFTISRDNSKNTLYLQMNSLRAEDTAVYYCTRRFCISGVCPFEYWGQGTLVTVSS
VL: QSALTQPPSASGTPGQRVTISCSGSSSNIGSNTVNWYQQLPGTAPKLLIYSNNQRPSGVPDRFSGSKSGTSASLAISGLQSEDEADYYCQSYDNSLTNFVFGSGTKVTVLG
notes: Full length fully human IgG; also called Cl

binding result [1]: binds
B10: fully human anti-ALK IgG A7 (antibody, V domains shown)
VH: EVQLLESGGGLVQPGGSLRLSCAASGFTFSNYIMSWVRQAPGKGLEWVSWISSSGGFTQYADSVKGRFTISRDNSKNTLYLQMNSLRAEDTAVYYCARVIAAAGAFDYWGQGTLVTVSS
VL: DIQMTQSPSSVAASVGDRVTITCRASQDISTWLAWYQQKPGKAPKLLLSGASRLERGVPSRFSGSGSGTDFTLTIRGLQSEDFATYYCQQARSFPPTFGQGTRVEMR
notes: Full length fully human IgG
